Holding throughout (assay): cell-based or functional assay
For test [1], the target named is T1, human RXFP1 (human, UniProt Q9HBX9 1-757).
T1 sequence (looked up): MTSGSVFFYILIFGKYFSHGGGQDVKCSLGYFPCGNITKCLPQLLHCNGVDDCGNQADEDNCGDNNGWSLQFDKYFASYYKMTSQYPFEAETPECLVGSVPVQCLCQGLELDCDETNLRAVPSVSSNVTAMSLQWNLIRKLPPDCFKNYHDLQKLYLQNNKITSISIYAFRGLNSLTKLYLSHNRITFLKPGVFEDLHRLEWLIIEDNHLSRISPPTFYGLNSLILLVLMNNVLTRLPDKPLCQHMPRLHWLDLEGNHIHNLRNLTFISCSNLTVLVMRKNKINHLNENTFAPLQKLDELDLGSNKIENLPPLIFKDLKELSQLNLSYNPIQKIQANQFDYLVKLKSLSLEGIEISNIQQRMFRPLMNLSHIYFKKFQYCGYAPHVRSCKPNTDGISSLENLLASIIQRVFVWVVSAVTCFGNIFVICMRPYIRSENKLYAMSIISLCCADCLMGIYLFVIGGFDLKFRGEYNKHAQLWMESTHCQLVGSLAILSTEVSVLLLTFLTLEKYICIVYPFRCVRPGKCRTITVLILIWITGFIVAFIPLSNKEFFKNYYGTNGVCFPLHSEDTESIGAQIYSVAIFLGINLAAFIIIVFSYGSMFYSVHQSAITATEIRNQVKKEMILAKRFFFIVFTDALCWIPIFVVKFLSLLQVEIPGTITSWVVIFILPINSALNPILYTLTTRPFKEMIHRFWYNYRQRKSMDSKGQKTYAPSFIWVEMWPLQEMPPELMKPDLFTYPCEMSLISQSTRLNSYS

Test [2] addresses T1, human RXFP1. This is another data set of the same source.
The next test concerns the target T2, human RXFP3 (human, UniProt Q9NSD7 1-469).
T2 sequence (looked up): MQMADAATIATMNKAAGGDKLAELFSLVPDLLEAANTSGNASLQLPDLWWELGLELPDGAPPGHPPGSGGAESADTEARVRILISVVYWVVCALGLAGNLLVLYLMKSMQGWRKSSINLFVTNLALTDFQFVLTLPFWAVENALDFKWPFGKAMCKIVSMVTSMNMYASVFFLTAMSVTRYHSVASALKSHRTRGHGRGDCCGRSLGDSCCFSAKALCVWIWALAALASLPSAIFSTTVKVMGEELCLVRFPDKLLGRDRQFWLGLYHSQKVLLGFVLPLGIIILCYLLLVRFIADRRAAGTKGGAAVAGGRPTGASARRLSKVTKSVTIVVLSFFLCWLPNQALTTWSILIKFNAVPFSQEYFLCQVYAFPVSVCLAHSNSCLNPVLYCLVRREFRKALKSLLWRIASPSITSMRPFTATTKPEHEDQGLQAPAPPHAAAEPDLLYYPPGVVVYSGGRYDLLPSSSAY

The target in a further test is T3, cynomolgus monkey RXFP1 (cynomolgus monkey, UniProt H9ERA2 1-757 (rhesus entry)).
T3 sequence: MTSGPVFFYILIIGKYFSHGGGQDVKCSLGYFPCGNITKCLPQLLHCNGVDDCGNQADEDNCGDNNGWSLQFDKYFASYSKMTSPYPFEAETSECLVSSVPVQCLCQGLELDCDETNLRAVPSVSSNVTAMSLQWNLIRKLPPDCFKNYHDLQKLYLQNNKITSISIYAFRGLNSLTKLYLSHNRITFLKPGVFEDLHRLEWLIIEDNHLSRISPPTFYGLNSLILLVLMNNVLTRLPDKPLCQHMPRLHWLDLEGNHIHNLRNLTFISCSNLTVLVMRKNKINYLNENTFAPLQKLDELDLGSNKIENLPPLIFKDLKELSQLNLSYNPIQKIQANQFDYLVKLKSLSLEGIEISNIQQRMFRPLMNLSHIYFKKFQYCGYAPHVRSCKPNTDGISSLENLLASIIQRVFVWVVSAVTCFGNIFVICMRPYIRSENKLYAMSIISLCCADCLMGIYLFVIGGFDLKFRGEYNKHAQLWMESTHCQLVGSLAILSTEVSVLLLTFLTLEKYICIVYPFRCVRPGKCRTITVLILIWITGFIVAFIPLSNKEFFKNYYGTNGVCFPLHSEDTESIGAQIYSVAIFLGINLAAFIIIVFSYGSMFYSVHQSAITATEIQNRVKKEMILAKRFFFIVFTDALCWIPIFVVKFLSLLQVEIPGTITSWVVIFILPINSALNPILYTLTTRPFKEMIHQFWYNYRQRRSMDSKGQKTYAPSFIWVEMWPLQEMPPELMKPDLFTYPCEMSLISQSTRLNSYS

A further test deals with dog RXFP1 (dog).
In the next test the target is T4, mouse RXFP1 (mouse, UniProt Q6R6I7 1-758).
T4 sequence (looked up): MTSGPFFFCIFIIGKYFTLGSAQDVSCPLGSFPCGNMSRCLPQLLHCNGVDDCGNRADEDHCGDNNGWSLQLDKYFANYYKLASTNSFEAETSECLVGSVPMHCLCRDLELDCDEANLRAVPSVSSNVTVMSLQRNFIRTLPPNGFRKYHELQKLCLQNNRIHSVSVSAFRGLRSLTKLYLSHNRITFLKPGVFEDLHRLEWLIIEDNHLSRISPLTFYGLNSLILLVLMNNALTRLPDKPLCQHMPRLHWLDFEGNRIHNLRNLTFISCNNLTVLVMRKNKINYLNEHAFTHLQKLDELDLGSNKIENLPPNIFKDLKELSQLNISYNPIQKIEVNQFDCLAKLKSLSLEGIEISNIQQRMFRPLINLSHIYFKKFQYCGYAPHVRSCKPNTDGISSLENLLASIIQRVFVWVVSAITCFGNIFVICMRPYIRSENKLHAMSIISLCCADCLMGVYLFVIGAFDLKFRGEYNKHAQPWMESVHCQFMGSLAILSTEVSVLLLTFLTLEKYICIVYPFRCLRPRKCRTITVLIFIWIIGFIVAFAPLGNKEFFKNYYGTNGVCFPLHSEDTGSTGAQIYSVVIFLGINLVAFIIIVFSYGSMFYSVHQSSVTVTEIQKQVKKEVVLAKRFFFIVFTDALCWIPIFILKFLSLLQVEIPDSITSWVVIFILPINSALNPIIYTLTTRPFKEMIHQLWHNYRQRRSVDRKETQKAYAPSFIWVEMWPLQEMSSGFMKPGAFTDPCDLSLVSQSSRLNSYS

B1: RLX-A-AQ1-20KPEG (ligand)
chain 1: XLYSALANKCCHVGCTKRSLARFC
chain 2: ASWMEEVIKLCGRELVRAQIAICGMSTWS
modifications: pACF (para-acetylphenylalanine) at position 1 of the A chain, linked to a 20 kDA PEG via an oxime linkage
Regarding B1, the “In vitro Activity Fold Loss” value in the test with human RXFP1 [1] stood at 12 fold. In the test with human RXFP1 [2], the “Potency Ratio (RLX-A-AQ1-20KPEG/WT-RLX), cAMP assay, THP-1 cells” value came to 26 fold; the “Potency Ratio (RLX-A-AQ1-20KPEG/WT-RLX), cAMP assay, hRXFP1/CHO-K1 cells” value was 32 fold; the “RLX-A-AQ1-20KPEG Potency Ratio (hRXFP 1-1.0), cAMP assay” value (shortened to “RLX-A-AQ1-20KPEG Potency Ratio”) stood at 1 ratio; the “cAMP Assay EC50 (nM), THP-1 cells” value worked out at 7.6 nM. Also, the “cAMP Assay EC50 (nM), hRXFP1/CHO-K1 cells” value with human RXFP1 [2] was determined as 3.2 nM. For the same molecule, the “cAMP Assay EC50 (nM), inhibition of forskolin-induced cAMP, human RXFP3/CHO-K1 cells” value in the test with human RXFP3 is over 3000 nM. Moreover, in the test with cynomolgus monkey RXFP1, the “Potency Ratio (RLX-A-AQ1-20KPEG/WT-RLX), cAMP assay, cyno RXFP1/CHO-K1 cells” value came out at 33 fold; the “RLX-A-AQ1-20KPEG Potency Ratio” value was found to be 1.6 ratio; the “cAMP Assay EC50 (nM), cyno RXFP1/CHO-K1 cells” value was found to be 1.97 nM. Moreover, in the test with dog RXFP1, the “Potency Ratio (RLX-A-AQ1-20KPEG/WT-RLX), cAMP assay, dog RXFP1/CHO-K1 cells” value amounted to 27 fold; the “RLX-A-AQ1-20KPEG Potency Ratio” value turned out to be 4.7 ratio; the “cAMP Assay EC50 (nM), dog RXFP1/CHO-K1 cells” value came out at 15 nM. Also, in the test with mouse RXFP1, the “Potency Ratio (RLX-A-AQ1-20KPEG/WT-RLX), cAMP assay, mouse RXFP1/CHO-K1 cells” value was 22 fold; the “RLX-A-AQ1-20KPEG Potency Ratio” value worked out at 0.66 ratio; the “cAMP Assay EC50 (nM), mouse RXFP1/CHO-K1 cells” value worked out at 2.1 nM.
